Results: PMC11417369, “DNA sequence and chromatin differentiate sequence-specific transcription factor binding in the human malaria parasite Plasmodium falciparum”

T1: HDP1 homeodomain-like (Plasmodium falciparum, UniProt Q8IKH4 2990-3078)
T1 sequence: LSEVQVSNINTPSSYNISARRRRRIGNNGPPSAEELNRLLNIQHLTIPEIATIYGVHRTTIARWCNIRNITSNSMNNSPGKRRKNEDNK

T2: SIP2 D1 (Plasmodium falciparum, UniProt C6KSN9 177-235)
T2 sequence: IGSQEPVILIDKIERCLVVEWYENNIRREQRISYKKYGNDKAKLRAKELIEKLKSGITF

B1: GTGCAC_negctrl_site177 (dsDNA)
DNA 1: TCACAAAAAGAACATTGATATTATTATAAAATCGTC
DNA 2: GACGATTTTATAATAATATCAATGTTCTTTTTGTGA
B2: GTGCAC_negctrl_site39 (dsDNA)
DNA 1: AAACAGCATGGTATACCTATAAAATATATATACTAA
DNA 2: TTAGTATATATATTTTATAGGTATACCATGCTGTTT
B3: GTGCAC_negctrl_site475 (dsDNA)
DNA 1: AGAAATAATATTATTCAAGTATTTATTTAATTTTCA
DNA 2: TGAAAATTAAATAAATACTTGAATAATATTATTTCT
B4: GTGCAC_negctrl_site298 (dsDNA)
DNA 1: TTTTAACAAAACTAAATAATCATATATATAAGATAT
DNA 2: ATATCTTATATATATGATTATTTAGTTTTGTTAAAA
B5: GTGCAC_negctrl_site656 (dsDNA)
DNA 1: ATTATTTATTTATTTTTTTTTTTTTTCTCTTTTCCT
DNA 2: AGGAAAAGAGAAAAAAAAAAAAAATAAATAAATAAT
B6: GTGCAC_site10021 (dsDNA)
DNA 1: ATAAAATATATATTAGTGCACTAAAGGAAAAAAAAT
DNA 2: ATTTTTTTTCCTTTAGTGCACTAATATATATTTTAT
B7: GTGCAC_negctrl_site227 (dsDNA)
DNA 1: ATAGAATAAATTTTGTCATTTATTCCTTATATATAA
DNA 2: TTATATATAAGGAATAAATGACAAAATTTATTCTAT
B8: GTGCAC_negctrl_site305 (dsDNA)
DNA 1: ATTTATATAAAATTAAAATAATACAAATTTATTCAT
DNA 2: ATGAATAAATTTGTATTATTTTAATTTTATATAAAT
B9: GTGCAC_negctrl_site150 (dsDNA)
DNA 1: TTGTAATAAAGAATTAAAAAAAAATATATACAGGTA
DNA 2: TACCTGTATATATTTTTTTTTAATTCTTTATTACAA
B10: GTGCAC_negctrl_site367 (dsDNA)
DNA 1: TTTTAAAAAAAAAAAAAATAAGATAAAATTAAATAA
DNA 2: TTATTTAATTTTATCTTATTTTTTTTTTTTTTAAAA
B11: GTGCAC_negctrl_site321 (dsDNA)
DNA 1: ACAAAAAATTAATGAGAAATGGAATAATAAGTTATA
DNA 2: TATAACTTATTATTCCATTTCTCATTAATTTTTTGT
B12: GTGCAC_negctrl_site301 (dsDNA)
DNA 1: TTTATTTATTTATATTTTTTTATATAATTTATATAT
DNA 2: ATATATAAATTATATAAAAAAATATAAATAAATAAA
B13: GTGCAC_negctrl_site155 (dsDNA)
DNA 1: AAATTTTTTAATTTTTCTCATTTAATTTAAAAATTA
DNA 2: TAATTTTTAAATTAAATGAGAAAAATTAAAAAATTT
B14: GTGCAC_negctrl_site189 (dsDNA)
DNA 1: AACAAATATGATTTTTTATATATTTTTAAATTTGGT
DNA 2: ACCAAATTTAAAAATATATAAAAAATCATATTTGTT
B15: GTGCAC_negctrl_site601 (dsDNA)
DNA 1: TAAGCCAAGGGATAAATAAAATAACAAAATGAAATC
DNA 2: GATTTCATTTTGTTATTTTATTTATCCCTTGGCTTA
B16: GTGCAC_negctrl_site122 (dsDNA)
DNA 1: ATCTTAGTTGAAATATAGAATTTATAATAAAAGTTA
DNA 2: TAACTTTTATTATAAATTCTATATTTCAACTAAGAT
B17: GTGCAC_negctrl_site641 (dsDNA)
DNA 1: TTTTCTTGACCTATTATTCTTCTCATAGTATAATAT
DNA 2: ATATTATACTATGAGAAGAATAATAGGTCAAGAAAA

The binders below were run against T1, HDP1 homeodomain-like (assay: gcPBM; about 25 ug protein; PBS, 1% milk, 0.2 mg/ml BSA, salmon testes DNA, 0.03% Triton X-100). Conditions: tags: N-terminal GST (pGEX-4T-1), kept; chain copies: 2; label: surface-attached array probe.

Question: With B1 as the binder, how does the binding signal read?
Answer: 6.14 ln median PBM intensity, better of two orientations

Question: B2 was tested. Which binding signal did it give?
Answer: 6.18 ln median PBM intensity, better of two orientations

Question: How did the binding signal turn out when B3 was run?
Answer: 5.92 ln median PBM intensity, better of two orientations

Question: Which binding signal does the source give for B4 here?
Answer: 6.21 ln median PBM intensity, better of two orientations

Question: How did the binding signal turn out when B5 was run?
Answer: 6.27 ln median PBM intensity, better of two orientations

Question: With B6 as the binder, how does the binding signal read?
Answer: 11.6 ln median PBM intensity, better of two orientations

Question: Which binding signal does the source give for B7 here?
Answer: 6.37 ln median PBM intensity, better of two orientations

Question: Which binding signal does the source give for B8 here?
Answer: 6.1 ln median PBM intensity, better of two orientations

Question: With B9 as the binder, how does the binding signal read?
Answer: 6.31 ln median PBM intensity, better of two orientations

Question: B10 was tested. Which binding signal did it give?
Answer: 6.01 ln median PBM intensity, better of two orientations

Question: With B11 as the binder, how does the binding signal read?
Answer: 6.32 ln median PBM intensity, better of two orientations

Question: For B12, which binding signal is on record?
Answer: 6.28 ln median PBM intensity, better of two orientations

Question: For B13, which binding signal is on record?
Answer: 5.71 ln median PBM intensity, better of two orientations

Question: For B14, which binding signal is on record?
Answer: 5.9 ln median PBM intensity, better of two orientations

Question: With B15 as the binder, how does the binding signal read?
Answer: 6.27 ln median PBM intensity, better of two orientations

Question: With B16 as the binder, how does the binding signal read?
Answer: 6.01 ln median PBM intensity, better of two orientations

Question: Which binding signal does the source give for B17 here?
Answer: 6.18 ln median PBM intensity, better of two orientations

These binders were tested against T2, SIP2 D1 in the same assay as above. Conditions: tags: N-terminal GST (pGEX-4T-1), kept; label: surface-attached array probe.

Question: With B3 as the binder, how does the binding signal read?
Answer: 6.53 ln median PBM intensity, better of two orientations

Question: B5 was tested. Which binding signal did it give?
Answer: 6.87 ln median PBM intensity, better of two orientations

Question: Which binding signal does the source give for B6 here?
Answer: 10.4 ln median PBM intensity, better of two orientations

Question: B7 was tested. Which binding signal did it give?
Answer: 6.84 ln median PBM intensity, better of two orientations

Question: How did the binding signal turn out when B9 was run?
Answer: 6.9 ln median PBM intensity, better of two orientations

Question: For B10, which binding signal is on record?
Answer: 6.6 ln median PBM intensity, better of two orientations

Question: With B11 as the binder, how does the binding signal read?
Answer: 6.83 ln median PBM intensity, better of two orientations

Question: B14 was tested. Which binding signal did it give?
Answer: 6.75 ln median PBM intensity, better of two orientations

What follows are binders tested against AP2-I D3 (Plasmodium falciparum, UniProt Q8IJW6 910-1027) in the same assay as above. Conditions: tags: N-terminal GST (pGEX-4T-1), kept; label: surface-attached array probe.

Question: How did the binding signal turn out when B1 was run?
Answer: 7 ln median PBM intensity, better of two orientations

Question: For B2, which binding signal is on record?
Answer: 7.07 ln median PBM intensity, better of two orientations

Question: With B3 as the binder, how does the binding signal read?
Answer: 6.75 ln median PBM intensity, better of two orientations

Question: For B4, which binding signal is on record?
Answer: 6.97 ln median PBM intensity, better of two orientations

Question: Which binding signal does the source give for B5 here?
Answer: 6.88 ln median PBM intensity, better of two orientations

Question: B6 was tested. Which binding signal did it give?
Answer: 12.4 ln median PBM intensity, better of two orientations

Question: B7 was tested. Which binding signal did it give?
Answer: 7.14 ln median PBM intensity, better of two orientations

Question: How did the binding signal turn out when B8 was run?
Answer: 7 ln median PBM intensity, better of two orientations

Question: Which binding signal does the source give for B9 here?
Answer: 7.17 ln median PBM intensity, better of two orientations

Question: With B10 as the binder, how does the binding signal read?
Answer: 6.89 ln median PBM intensity, better of two orientations

Question: For B11, which binding signal is on record?
Answer: 7.2 ln median PBM intensity, better of two orientations

Question: How did the binding signal turn out when B12 was run?
Answer: 7.13 ln median PBM intensity, better of two orientations

Question: How did the binding signal turn out when B13 was run?
Answer: 7.03 ln median PBM intensity, better of two orientations

Question: B14 was tested. Which binding signal did it give?
Answer: 7.09 ln median PBM intensity, better of two orientations

Question: Which binding signal does the source give for B15 here?
Answer: 7.02 ln median PBM intensity, better of two orientations

Question: How did the binding signal turn out when B16 was run?
Answer: 7.07 ln median PBM intensity, better of two orientations

Question: With B17 as the binder, how does the binding signal read?
Answer: 7.08 ln median PBM intensity, better of two orientations
